Where no end group is shown, it is not given here. Side-chain parts run from the residue outwards. dermatan sulfate = dermatan sulfate, the glycan component of the peptidoglycan; BMPH = crosslinker coupling the Cys thiol to oxidized dermatan sulfate
B1: biotin labeled peptidoglycan DS-SILY4 (DS-SILY4-biotin) (peptide)
peptide: RRANAALKAGELYKSILYGC([BMPH-dermatan sulfate])
modifications: not fully specified (C-terminus); also: 4 SILY peptides per dermatan sulfate, biotin label on every peptide, position not given here
B2: biotin labeled peptidoglycan DS-SILY18 (DS-SILY18-biotin) (peptide)
peptide: RRANAALKAGELYKSILYGC([BMPH-dermatan sulfate])
modifications: not fully specified (C-terminus); also: 18 SILY peptides per dermatan sulfate, 2 of them biotin labeled, biotin position not given here

Experiments:
[1] = target: Type I fibrillar collagen (Chronolog, Havertown, Pa.); assay: plate binding assay on fibrillar collagen, biotin label detected with streptavidin-HRP, saturation curve fit
[2] = target: Type I fibrillar collagen (Chronolog, Havertown, Pa.); assay: plate assay on fibrillar collagen, biotin labeled peptidoglycan detected with streptavidin-HRP, Abs 450 nm
[3] = target: collagen (type and supplier not stated; Examples 11 and 12); assay: SPR (Biacore 2000, CM-3 chip), collagen immobilized, peptide in flow at 100 µM to 1.5 µM
[4] = target: Type I fibrillar collagen (Chronolog, Havertown, Pa.); assay: diffusion from fibrillar collagen coated plate at 37° C., loaded at 10 µM, biotin label detected with streptavidin-HRP

Binder	Kd [1] [nM]	EC50 (read off the curve) [2] [nM]	Kd [3] [nM]	amount remaining bound after 1 week of extensive rinsing (equivalent concentration) [4] [nM]
B1	118	100		
RRANAALKAGELYKSILYGC [peptide … (SILY)]			1200	
B2	24	20		10
